Laboratory results: article PMC10099132, “Sequence and Structural Motifs Controlling the Broad Substrate Specificity of the Mycobacterial Hormone-Sensitive Lipase LipN” (ACS Omega, 2023)

How the values were obtained:
Assay in all cases: purified protein, by the assay type
[1] = substrate: CCCCCCCC(=O)Oc1ccc([N+](=O)[O-])cc1; set-up: p-nitrophenyl ester hydrolysis, absorbance at 412 nm, Michaelis-Menten fit
Text: (§1) (A) Classic p-nitrophenyl ester substrates were used as conformation for fluorogenic substrate measurements (Figure 1). (B) Catalytic efficiency comparison of MmLipN against p-nitrophenyl substrates. Catalytic efficiency values (kcat/Km) are given ± SD. (C, D) Kinetic activity of MmLipN against (C) short alkyl ester substrates: p-nitrophenyl acetate (C2) and p-nitrophenyl butyrate (C4) and (D) longer alkyl ester substrates: p-nitrophenyl valerate ([…]), p-nitrophenyl octonoate (C8), and p-nitrophenyl myristate (C14). Data points were fitted to the Michaelis–Menten equation and are shown ± SD.

[2] = substrate: CCCCCCCCCCCCCC(=O)Oc1ccc([N+](=O)[O-])cc1; set-up: p-nitrophenyl ester hydrolysis, absorbance at 412 nm, Michaelis-Menten fit
Text: as §1

[3] = substrate: CCCCC(=O)Oc1ccc([N+](=O)[O-])cc1; set-up: p-nitrophenyl ester hydrolysis, absorbance at 412 nm, Michaelis-Menten fit
Text: as §1

[4] = substrate: CC(=O)Oc1ccc([N+](=O)[O-])cc1; set-up: p-nitrophenyl ester hydrolysis, absorbance at 412 nm, Michaelis-Menten fit
Text: as §1

[5] = substrate: CC1(C(=O)OCOc2ccc3c(c2)Oc2cc(OCOC(=O)C4(C)CC4(Cl)Cl)ccc2C32OC(=O)c3ccccc32)CC1(Cl)Cl; set-up: fluorogenic ester hydrolysis, fluorescein release, Michaelis-Menten fit of initial rates
Experimental: (§2) The enzyme kinetic activity of LipN was assayed via the hydrolysis of the fluorogenic substrates (Figure 1) in accordance with past kinetic analysis of mycobacterial serine hydrolases.[37],[38],[40],[66],[67] Kinetic assays were run in triplicate on black 96-well plates in a Synergy H1 Hybrid Reader (BioTek). Fluorogenic ester substrates (10 mM in DMSO) were diluted to a starting concentration of 100 μM in PBS containing acetylated BSA (Sigma; 0.1 mg/mL). Eight serial dilutions (1:1; 120 μL into 240 μL total volume) of each substrate were made using PBS–BSA. Fluorogenic substrate dilutions (95 μL) were then transferred to opaque 96-well microplate (Corning, Lowell, MA). Reactions were initiated by quickly adding enzyme (5 μL, 3.0 nM final concentration) to each assay well, mixed, and the fluorescence counts measured every 26–30 s for 4.5 min with a BioTek H1 Synergy multimode plate reader (Biotek Instruments; Winooski, VT) at ambient temperature. The instrument measured relative fluorescence through excitation at λ = 485 nm and emission at λ = 520 nm. The fluorescence change was converted to molar concentrations using a fluorescein standard curve (300–2.3 nM), whose fluorescence was measured simultaneously. The initial rates of the enzyme-catalyzed reactions were measured in triplicate and plotted versus fluorogenic substrate concentration. […] (A) Activation of fluorogenic ester substrates by MmLipN. Each of the substrates is composed of diacyloxymethyl ether fluorescein with varying R-groups. The differing R-groups have been organized into classes and colored based on chemical functionality. All of the substrates were synthesized as described previously.[38],[43] Substrates 6, 10–11, 14–15, 20, 23–30, and 33 were newly synthesized for this characterization of MmLipN. Detailed synthetic characterization is provided in the Supporting Information. (B) Global comparison of the catalytic specificity (kcat/KM) of MmLipN against each of the 33 substrates with ester classes labeled. Catalytic efficiency values (kcat/Km) are given ± SD based on at least three independent kinetic replicates. (C, D) Kinetic activity of MmLipN against high-activity ester substrates 1 (black circles), 7 (blue squares), and 20 (red diamonds) and low-activity ester substrates 12 (green circles), 16 (red squares), 27 (purple diamonds), and 31 (orange squares). Low- and high-activity substrates display classic Michaelis–Menten kinetics with MmLipN and activity above background hydrolysis rates. Traces colored based on ester classification from (A, B). All measurements were completed in at least triplicate and shown ± SD.

[6] = substrate: N#CCC(=O)OCOc1ccc2c(c1)Oc1cc(OCOC(=O)CC#N)ccc1C21OC(=O)c2ccccc21; set-up: fluorogenic ester hydrolysis, fluorescein release, Michaelis-Menten fit of initial rates
Experimental: as §2

[7] = substrate: O=C1OC2(c3ccc(OCOC(=O)C4(c5ccccn5)CC4)cc3Oc3cc(OCOC(=O)C4(c5ccccn5)CC4)ccc32)c2ccccc21; set-up: fluorogenic ester hydrolysis, fluorescein release, Michaelis-Menten fit of initial rates
Experimental: as §2

[8] = substrate: COCCOCCC(=O)OCOc1ccc2c(c1)Oc1cc(OCOC(=O)CCOCCOC)ccc1C21OC(=O)c2ccccc21; set-up: fluorogenic ester hydrolysis, fluorescein release, Michaelis-Menten fit of initial rates
Experimental: as §2

[9] = substrate: COCC(=O)OCOc1ccc2c(c1)Oc1cc(OCOC(=O)COC)ccc1C21OC(=O)c2ccccc21; set-up: fluorogenic ester hydrolysis, fluorescein release, Michaelis-Menten fit of initial rates
Experimental: as §2

[10] = substrate: CCC(=O)OCOc1ccc2c(c1)Oc1cc(OCOC(=O)CC)ccc1C21OC(=O)c2ccccc21; set-up: fluorogenic ester hydrolysis, fluorescein release, Michaelis-Menten fit of initial rates
Experimental: as §2

B1: MmLipN (LipN from M. marinum) (Mycobacterium marinum M) (protein)
chain: MTNSLPGETDLHPETVHATMSWLSRVQNTVTVVGAKVIPWVPDVAKRLITRGRSVIIDGNTLDPALQLMLSGMRVVGLDGLVIDDDLAASRAHMREAMLGFPGPQIHVDVEELTLPGPAGDISARHYRPPGDAAAPLLVFYHGGGWALGDLDTHDAVCRLTCRDAGIHVLAIDYRLSPEDRAPAAIDDAFAAFEWAHAHAAELGALPGRVAVGGDSAGGNLAAVVSQLARDSGGPAPIFQWLIYPRTDFAGRTRSASLFARGFLLTKRDIDWFHSQYLKGSGIEPTDPRVSPLRAESLAGLAPALIAVAGFDPLRDEGENYATALRAAGTPVDLRAMGSLTHGFLNLFPLGGGCAAATSELISALRAHLTRV
notes: E. coli LOBSTR (DE3); Ni-NTA
Protein B1 has a Km [1] of 410 ± 330 µM, a kcat [1] of 1.1 ± 0.2 s⁻¹ and a kcat/Km [1] of 2700 ± 1100 M⁻¹ s⁻¹. For the same protein, the Km [2] was 120 ± 50 µM, the kcat [2] was 0.28 ± 0.02 s⁻¹ and the kcat/Km [2] was 2300 ± 400 M⁻¹ s⁻¹. It also gave a Km [3] of 250 ± 70 µM, a kcat [3] of 15 ± 1 s⁻¹ and a kcat/Km [3] of 59000 ± 8000 M⁻¹ s⁻¹. The Km [4] was 2400 ± 1200 µM, the kcat [4] was 94 ± 8 s⁻¹ and the kcat/Km [4] was 39000 ± 10000 M⁻¹ s⁻¹. It also gave a Km [5] of 0.87 ± 1.1 µM, a kcat [5] of 1.1e-05 ± 3e-05 s⁻¹ and a kcat/Km [5] of 12 ± 19 M⁻¹ s⁻¹. For the same protein, the Km [6] was 3.1 ± 0.6 µM, the kcat [6] was 0.015 ± 0.008 s⁻¹ and the kcat/Km [6] was 4900 ± 1400 M⁻¹ s⁻¹. For the same protein, the Km [7] was 0.049 ± 0.027 µM, the kcat [7] was 2.6e-05 ± 2e-05 s⁻¹ and the kcat/Km [7] was 530 ± 250 M⁻¹ s⁻¹. The Km [8] was 21 ± 4 µM, the kcat [8] was 0.0005 ± 0.0004 s⁻¹ and the kcat/Km [8] was 26 ± 11 M⁻¹ s⁻¹. The Km [9] was 2.6 ± 1.1 µM, the kcat [9] was 0.11 ± 0.12 s⁻¹ and the kcat/Km [9] was 40000 ± 25000 M⁻¹ s⁻¹. The Km [10] was 4.2 ± 0.5 µM, the kcat [10] was 0.18 ± 0.06 s⁻¹ and the kcat/Km [10] was 42000 ± 15000 M⁻¹ s⁻¹.
